Values of other authors in paper PMC3734285, “Expression and Function of the Lipocalin-2 (24p3/NGAL) Receptor in Rodent and Human Intestinal Epithelia” (PLoS ONE, 2013).

Tested on: megalin

B1: hNGAL: Human lipocalin-2/Neutrophil Gelatinase-Associated Lipocalin, high-affinity ligand of hNGAL-R, from Enzo Life Sciences (protein)
chain: QDSTSDLIPAPPLSKVPLQQNFQDNQFQGKWYVVGLAGNAILREDKDPQKMYATIYELKEDKSYNVTSVLFRKKKCDYWIRTFVPGCQPGEFTLGNIKSYPGLTSYLVRVVSTNYNQHAMVFFKKVSQNREYFKITLYGRTKELTSELKENFIRFSKSLGLPENHIVFPVPIDQCIDG
  fold lower affinity of megalin to hNGAL (versus hNGAL-R): ~1000 fold
